# Key:
# [1] = molecular target: recombinant human insulin-regulated aminopeptidase (IRAP), secreted soluble form (human) (UniProt Q9UIQ6); test: SEC
# [2] = molecular target: recombinant human insulin-regulated aminopeptidase (IRAP), secreted soluble form (human) (UniProt Q9UIQ6); test: native gel or EMSA
# [3] = molecular target: recombinant human insulin-regulated aminopeptidase (IRAP), secreted soluble form (human) (UniProt Q9UIQ6); test: enzyme inhibition assay
Molecule,stoichiometry N [1],stoichiometry N [2],Ki [3] [nM]
"recombinant human insulin-regulated aminopeptidase (IRAP), secreted soluble form (from UniProt Q9UIQ6 155-1025) (enzyme)",2,2,–
VYPWT [peptide inhibitor VYPWT],–,–,98
